Laboratory results from publication PMC4938799, “LD Motif Recognition by Talin: Structure of the Talin-DLC1 Complex” (Structure(London, England:1993), 2016).

Test system: paxillin-DDK
Experiment: GST pull-down of transfected paxillin-DDK in 293 cells
Assay type: cell-based, human
From the text: To investigate whether the biological effects of GST-R8 might be partly mediated via paxillin, we first confirmed that endogenous paxillin is expressed in cell lines A549, H358, and 293T (Figure S6A). […] As a positive control, HEK293 cells were co-transfected with a paxillin-DDK construct (OriGene) and GST-R8 (wild-type, R1544E and 2E mutants), followed by a GST pull-down assay.
Figure S6, related to figure 5. Binding of GST-talin R8 to endogenous paxillin is undetectable in A549 and H358 cells.
(A) The expression of endogenous paxillin in cell lines. Cell extracts were assayed by immunoblotting with anti-paxillin antibody. […]
NMR Spectroscopy - Spectra were processed with TopSpin (Bruker) and analysed using CCPN Analysis (Vranken et al., 2005). […] The changes in chemical shift of 15N-talin R8 domain were calculated from 1H,15N-HSQC spectra as Δδ=√(ΔδH2+(ΔδN*0.15)2). […]
Dissociation constants were evaluated from the 1H,15N-HSQC chemical shift changes in the titration experiments conducted using 0.1 mM 15N-talin R8 domain. […]
Concentrations of the DLC1 and RIAM peptides were determined from UV absorbance at 280 nm.
Concentrations of the paxillin peptide that lacks UV-active aromatic residues was determined by NMR from the comparison of the integral intensities of the well-separated signals of the methyl groups of the paxillin and RIAM peptides following the Eretic2 procedure of TopSpin (Bruker). […]

B1: GST-R8: GST-tagged talin R8, amino acids 1,453–1,580 (protein)
chain: NSQAGQQGLVEPTQFARANQAIQMACQSLGEPGCTQAQVLSAATIVAKHTSALCNSCRLASARTANPTAKRQFVQSAKEVANSTANLVKTIKALDGDFTEENRAQCRAATAPLLEAVDNLSAFASNPE
modifications: left off: GST, end not stated, kept
- binding of paxillin-DDK (293 cells co-transfected with paxillin-DDK and GST-R8, listed as GST-talin R8 wt): formed a complex
- binding of paxillin-DDK (293 cells co-transfected with paxillin-DDK and GST-R8, listed as wild-type GST-R8): did bind paxillin-DDK, and did so more efficiently than 2E GST-R8 talin mutant
